According to patent publication US20220213227A1 (published 2022):

What was measured:
human OX40 on cells = target: T1, human OX40 on cells (human, UniProt P43489 29-277); test: cell-based or functional assay
T1 sequence (looked up): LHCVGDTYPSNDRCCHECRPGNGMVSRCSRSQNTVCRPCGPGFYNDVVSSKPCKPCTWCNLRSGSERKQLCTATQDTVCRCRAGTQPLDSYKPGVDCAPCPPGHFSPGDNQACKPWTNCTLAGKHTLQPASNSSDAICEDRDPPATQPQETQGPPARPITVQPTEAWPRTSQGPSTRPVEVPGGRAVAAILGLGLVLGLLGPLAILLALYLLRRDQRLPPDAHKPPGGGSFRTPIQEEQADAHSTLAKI

human HER2 on cells = human HER2 on cells (human, UniProt P04626 23-1255); test: cell-based or functional assay
[1] = target: T2, human CD3 gamma-epsilon-Fc fusion protein (human); test: SPR using the human CD3gamma-epsilon-Fc construct
T2 construct: also called CD3 gamma-epsilon-Fc protein; human CD3gamma-epsilon-Fc construct

human EGFR on cells [2] = target: T3, human EGFR on cells (human, UniProt P00533 25-1210); test: cell-based or functional assay
human EGFR on cells [3] = target: T3, human EGFR on cells; test: cell-based or functional assay; remark: listed apart in the source
[4] = target: T4, soluble extracellular region of human CD38 fused to a 6-His-tag (human, UniProt P28907 43-300); test: SPR, antibody captured on protein G chip, equilibrium response vs concentration
T4 construct: Extracellular region = UniProt P28907 residues 43-300, with a 6-His-tag at the C-terminal end; also called human CD38 protein; human CD38 antigen

[5] = target: soluble extracellular region of cynomolgus monkey CD38 antigen fused to a 6-His-tag (cynomolgus monkey, UniProt Q5VAN0 45-301); test: SPR

B1: BEAT OX40/CD3 antibody (bispecific antibody, human IgG1, kappa, L234A L235A)
heavy: QVTLKESGPALVKPTQTLTLTCSFSGFSLSTSGMGVGWIRQPPGKALEWIAHIWWDDDKYYNTALKTRLTISKDTSKNQVVLTMTNMDPVDTATYYCARIDWDGFAYWGQGTLVTVSSASTKGPSVFPLAPSSKSTSGGTAALGCLVKDYFPEPVTVSWNSGALTSGVHTFPAVLQSSGLYSLSSVVTVPSSSLGTQTYICNVNHKPSNTKVDKKVEPKSCDKTHTCPPCPAPEAAGGPSVFLFPPKPKDTLMISRTPEVTCVVVDVSHEDPEVKFNWYVDGVEVHNAKTKPREEQYNSTYRVVSVLTVLHQDWLNGKEYKCKVSNKALPAPIEKTISKAKGQPREPAVYTLPPSRDELTKNQVKLVCLVTGFYPSDIAVEWESNGQPENNYYTTPPVLDSDGSFSLVSWLNVDKSRWQQGNVFSCSVMHEALHNHYTQKSLSLSPGK
light: EIVLTQSPATLSLSPGERATLSCRASSSVSYMHWYQQKPGQAPRPWIYATSNRATGIPARFSGSGSGTDYTLTISSLEPEDFAVYYCQQWSSNPWTFGQGTKVEIKRTVAAPSVFIFPPSDEQLKSGTASVVCLLNNFYPREAKVQWKVDNALQSGNSQESVTEQDSKDSTYSLSSTLTLSKADYEKHKVYACEVTHQGLSSPVTKSFNRGEC
chain: EVQLVESGGGLVQPGGSLRLSCAASGYTFTRYTMHWVRQAPGKGLEWIGYINPSRGYTYYADSVKGRFTLSTDKSKNTAYLQMSSLRAEDTAVYYCARYYDDHYCLDYWGQGTLVTVSSGGGGSGGGGSGGGGSGGGASDIQLTQSPSSLSASVGDRVTITCRASSSVSYVAWYQQKPGKAPKRWIYDTSKLYSGVPSRFSGSGSGTDYTLTISSLQPEDFATYYCQQWSSNPPTFGQGTKVEIKGGGGTDKTHTCPPCPAPEAAGGPSVFLFPPKPKDTLMISRTPEVTCVVVDVSHEDPEVQFKWYVDGVEVHNAKTKPREEQYNSTFRVVSVLTVLHQDWLNGKEYKCKVSNKALPAPIEKTISKTKGQPREPEVATFPPSREEMTKNQVTLVCLVTGFYPSDIAVEWESSGQPENNYNTDPPLLESDGSFALSSRLRVDKSRWQQGNIFSCSVMHEALHNRFTQKSLSLSPGK
EC50 of T cell redirected killing of stable recombinant CHO[OX40] cells (RDL-MTS) (human OX40 on cells): 0.5 nM

B2: BEAT HER2/CD3-2 antibody (bispecific antibody, human IgG1, kappa, L234A L235A)
heavy: not shown
light: not shown
chain: EVQLVESGGGLVQPGGSLRLSCAASGYTFTRYTMHWVRQAPGKGLEWIGYINPSRGYTYYADSVKGRFTLSTDKSKNTAYLQMSSLRAEDTAVYYCARYYDDHYCLDYWGQGTLVTVSSGGGGSGGGGSGGGGSGGGASDIQLTQSPSSLSASVGDRVTITCRASSSVSYVAWYQQKPGKAPKRWIYDTSKLYSGVPSRFSGSGSGTDYTLTISSLQPEDFATYYCQQWSSNPPTFGQGTKVEIKGGGGTDKTHTCPPCPAPEAAGGPSVFLFPPKPKDTLMISRTPEVTCVVVDVSHEDPEVQFKWYVDGVEVHNAKTKPREEQYNSTFRVVSVLTVLHQDWLNGKEYKCKVSNKALPAPIEKTISKTKGQPREPEVATFPPSREEMTKNQVTLVCLVTGFYPSDIAVEWESSGQPENNYNTDPPLLESDGSFALSSRLRVDKSRWQQGNIFSCSVMHEALHNRFTQKSLSLSPGK
EC50 of T cell redirected killing of BT-474 cells (RDL-MTS) (human HER2 on cells): 0.002 nM
EC50 of T cell redirected killing of JIMT-1 cells (RDL-MTS) (human HER2 on cells): 0.016 nM
EC50 of T cell redirected killing of MDA-MB-231 cells (RDL-MTS) (human HER2 on cells): ~0.2 nM
binding result [1]: binds

B3: BEAT HER2/CD3-1 antibody (bispecific antibody, human IgG1, kappa, L234A L235A)
heavy: EVQLVESGGGLVQPGGSLRLSCAASGYTFTRYTMHWVRQAPGKGLEWIGYINPSRGYTYYADSVKGRFTLSTDKSKNTAYLQMSSLRAEDTAVYYCARYYDDHYCLDYWGQGTLVTVSSASTKGPSVFPLAPSSKSTSGGTAALGCLVKDYFPEPVTVSWNSGALTSGVHTFPAVLQSSGLYSLSSVVTVPSSSLGTQTYICNVNHKPSNTKVDKKVEPKSCDKTHTCPPCPAPEAAGGPSVFLFPPKPKDTLMISRTPEVTCVVVDVSHEDPEVQFKWYVDGVEVHNAKTKPREEQYNSTFRVVSVLTVLHQDWLNGKEYKCKVSNKALPAPIEKTISKTKGQPREPAVYTLPPSREEMTKNQVKLVCLVTGFYPSDIAVEWESSGQPENNYYTTPPMLDSDGSFSLVSWLNVDKSRWQQGNIFSCSVMHEALHNRFTQKSLSLSPGK
light: DIQLTQSPSSLSASVGDRVTITCRASSSVSYVAWYQQKPGKAPKRWIYDTSKLYSGVPSRFSGSGSGTDYTLTISSLQPEDFATYYCQQWSSNPPTFGQGTKVEIKRTVAAPSVFIFPPSDEQLKSGTASVVCLLNNFYPREAKVQWKVDNALQSGNSQESVTEQDSKDSTYSLSSTLTLSKADYEKHKVYACEVTHQGLSSPVTKSFNRGEC
chain: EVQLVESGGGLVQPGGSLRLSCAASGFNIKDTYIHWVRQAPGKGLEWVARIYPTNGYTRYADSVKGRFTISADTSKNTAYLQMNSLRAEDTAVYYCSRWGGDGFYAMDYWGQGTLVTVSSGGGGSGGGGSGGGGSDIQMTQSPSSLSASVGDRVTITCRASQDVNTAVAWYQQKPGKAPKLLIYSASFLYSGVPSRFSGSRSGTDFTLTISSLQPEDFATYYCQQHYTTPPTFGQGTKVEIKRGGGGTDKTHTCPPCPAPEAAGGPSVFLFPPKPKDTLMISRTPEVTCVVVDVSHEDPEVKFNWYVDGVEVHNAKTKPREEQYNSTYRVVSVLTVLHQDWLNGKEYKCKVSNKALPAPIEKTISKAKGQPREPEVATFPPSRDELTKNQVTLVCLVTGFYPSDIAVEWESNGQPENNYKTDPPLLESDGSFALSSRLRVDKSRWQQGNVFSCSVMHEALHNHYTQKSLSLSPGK
notes: also called HER2/CD3-1 bispecific antibody
EC50 of T cell redirected killing of BT-474 cells (RDL-MTS) (human HER2 on cells): 0.0006 nM
EC50 of T cell redirected killing of JIMT-1 cells (RDL-FACS) (human HER2 on cells): 0.0014 nM
EC50 of T cell redirected killing of JIMT-1 cells (RDL-MTS) (human HER2 on cells): 0.021 nM
EC50 of T cell redirected killing of MDA-MB-231 cells (RDL-FACS) (human HER2 on cells): 0.08 nM
EC50 of T cell redirected killing of MDA-MB-231 cells (RDL-MTS) (human HER2 on cells): ~0.2 nM
binding result [1]: binds

B4: VECTIBIX (panitumumab)/hSP34 BEAT (bispecific antibody)
VH: QVQLQESGPGLVKPSETLSLTCTVSGGSVSSGDYYWTWIRQSPGKGLEWIGHIYYSGNTNYNPSLKSRLTISIDTSKTQFSLKLSSVTAADTAIYYCVRDRVTGAFDIWGQGTMVTVSS
VL: DIQMTQSPSSLSASVGDRVTITCQASQDISNYLNWYQQKPGKAPKLLIYDASNLETGVPSRFSGSGSGTDFTFTISSLQPEDIATYFCQHFDHLPLAFGGGTKVEIK
chain: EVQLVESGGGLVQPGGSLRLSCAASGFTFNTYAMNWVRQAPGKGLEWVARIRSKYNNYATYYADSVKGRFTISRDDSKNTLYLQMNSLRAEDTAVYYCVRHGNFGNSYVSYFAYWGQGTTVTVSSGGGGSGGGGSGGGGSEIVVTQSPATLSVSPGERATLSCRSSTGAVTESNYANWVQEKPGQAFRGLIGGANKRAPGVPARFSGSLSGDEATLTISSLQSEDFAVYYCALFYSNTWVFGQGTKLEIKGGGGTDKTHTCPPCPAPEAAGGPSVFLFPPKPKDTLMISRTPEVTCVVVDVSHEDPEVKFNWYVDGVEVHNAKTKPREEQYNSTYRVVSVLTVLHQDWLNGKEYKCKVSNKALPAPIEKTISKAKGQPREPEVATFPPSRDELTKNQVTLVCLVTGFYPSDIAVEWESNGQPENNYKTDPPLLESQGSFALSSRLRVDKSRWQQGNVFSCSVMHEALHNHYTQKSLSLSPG
EC50 of redirected T-cell lysis of A549 cells (human EGFR on cells [2]): 0.000613 nM
EC50 of redirected T-cell lysis of HCC827 cells (value of the text, differs from the table) (human EGFR on cells [2]): 0.000156 nM
EC50 (X)/EC50 (HCC827), HCT116 cells (human EGFR on cells [3]): 2.3 ratio
EC50 (X)/EC50 (HCC827), MCF7 cells (human EGFR on cells [3]): 4300 ratio
EC50 (X)/EC50 (HCC827), SW480 cells (human EGFR on cells [3]): 47.9 ratio
EC50 of redirected T-cell lysis of HCC827 cells (human EGFR on cells [3]): 0.000146 nM
EC50 of redirected T-cell lysis of HCT116 cells (human EGFR on cells [3]): 0.000341 nM
EC50 of redirected T-cell lysis of MCF7 cells (human EGFR on cells [3]): 0.627 nM
EC50 of redirected T-cell lysis of SW480 cells (human EGFR on cells [3]): 0.00699 nM

B5: human 767 antibody (antibody, human IgG1, kappa, V domains shown)
VH: QVQLVESGGGLVQPGGSLRLSCAASGFTFSSYWMSWVRQAPGKGLEWVANIKQDGSEKYYVDSVKGRFTISRDNAKNSLYLQMNSLRAEDTAVYYCAREGRTGYFDYWGQGTLVTVSS
VL: QSVLTQPPSASGTPGQRVTISCSGSTSNIGTNYVYWYQQLPGTAPKLLIYRNDQRPSGVPDRFSGSKSGTSASLAISGLRSEDEADYYCAAWDDSRSGVYAFGTGTKVTVLR
notes: Human IgG1; also called clone 767 IgG1 antibody
Kd [4]: ~300 nM
Kd [5]: ~1200 nM
